Here are results for 5 molecules from paper PMC11139964, “L-serine deficiency: on the properties of the Asn133Ser variant of human phosphoserine phosphatase” (Scientific Reports, 2024).

Data set [1] has as its target T1, human phosphoserine phosphatase (PSP) (Homo sapiens, UniProt P78330).
T1 construct: gene PSPH; EC 3.1.3.3
T1 sequence (P78330 1-225): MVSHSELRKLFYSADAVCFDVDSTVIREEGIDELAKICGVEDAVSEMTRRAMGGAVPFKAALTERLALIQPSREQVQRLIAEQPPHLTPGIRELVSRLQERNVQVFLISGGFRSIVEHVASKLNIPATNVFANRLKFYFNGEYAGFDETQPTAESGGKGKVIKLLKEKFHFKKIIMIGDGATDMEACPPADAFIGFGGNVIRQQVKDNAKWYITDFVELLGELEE
As to the kind of experiment: PNP-coupled phosphate release assay (MESG, […] nm). The class given is biochemical. The following applies: read-out: wild-type.

Data set [2] addresses T2, human phosphoserine phosphatase (PSP) (Homo sapiens, UniProt P78330, N133S).
T2 construct: gene PSPH; EC 3.1.3.3
T2 sequence (P78330 1-225 N133S): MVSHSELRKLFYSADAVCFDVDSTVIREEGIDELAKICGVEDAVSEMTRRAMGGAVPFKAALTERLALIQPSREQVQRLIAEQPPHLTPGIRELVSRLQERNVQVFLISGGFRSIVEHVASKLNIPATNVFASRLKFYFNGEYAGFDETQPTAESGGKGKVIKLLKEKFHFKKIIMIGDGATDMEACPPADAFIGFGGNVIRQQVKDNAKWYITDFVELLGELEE
As to the kind of experiment: PNP-coupled phosphate release assay (MESG, […] nm). Type of data set: biochemical. The following applies: read-out: Asn133Ser.

Substrate in the data set “purified protein”: N[C@@H](COP(=O)(O)O)C(=O)O
As to the kind of experiment: purified protein. Type of data set: biochemical, Homo sapiens. The following applies: 50 mM HEPES, 100 mM KCl, 3 mM MgCl2, pH 7.0, 37 °C, 170 μM acetyl-CoA in coupling system.

Data set [3] concerns the molecule itself. In words: SEC; Superdex 75 Increase 5/150 GL, 50 mM HEPES pH 7.0, 100 mM KCl, room temperature, protein loaded at 10 uM; apparent mass from a calibration curve; monomer-dimer. A general note: In gel filtration, larger molecules generally elute earlier.

`N[C@@H](CO)C(=O)O` [L-serine]: the IC50 amounted to 290 ± 20 µM in data set [1] and 250 ± 25 µM in data set [2].

B1: human phosphoserine phosphatase (PSP) (Homo sapiens) (protein)
chain: MVSHSELRKLFYSADAVCFDVDSTVIREEGIDELAKICGVEDAVSEMTRRAMGGAVPFKAALTERLALIQPSREQVQRLIAEQPPHLTPGIRELVSRLQERNVQVFLISGGFRSIVEHVASKLNIPATNVFANRLKFYFNGEYAGFDETQPTAESGGKGKVIKLLKEKFHFKKIIMIGDGATDMEACPPADAFIGFGGNVIRQQVKDNAKWYITDFVELLGELEE
notes: EC 3.1.3.3
As to B1, in the data set “purified protein”, the Michaelis constant (Km) (usually the substrate concentration at which the rate is half of its maximum) came to 42 ± 13 µM; the catalytic constant (kcat) – broadly, the number of substrate molecules converted per active site and unit of time at saturation – stood at 38 ± 3 s⁻¹; the kcat/Km (as a rule, the second-order rate constant that governs catalysis at low substrate concentration) stood at 900000 M⁻¹ s⁻¹.

B2: human phosphoserine phosphatase (PSP) (Homo sapiens; N133S) (protein)
chain: MVSHSELRKLFYSADAVCFDVDSTVIREEGIDELAKICGVEDAVSEMTRRAMGGAVPFKAALTERLALIQPSREQVQRLIAEQPPHLTPGIRELVSRLQERNVQVFLISGGFRSIVEHVASKLNIPATNVFASRLKFYFNGEYAGFDETQPTAESGGKGKVIKLLKEKFHFKKIIMIGDGATDMEACPPADAFIGFGGNVIRQQVKDNAKWYITDFVELLGELEE
notes: EC 3.1.3.3
On to B2, for which, in “purified protein”, the Km worked out at 31 ± 5 µM, the catalytic constant (kcat) came to 28 ± 1 s⁻¹ and the kcat/Km stood at 900000 M⁻¹ s⁻¹.

B3: human phosphoserine phosphatase (PSP), wild-type (enzyme)
chain: SHSELRKLFYSADAVCFDVDSTVIREEGIDELAKICGVEDAVSEMTRRAMGGAVPFKAALTERLALIQPSREQVQRLIAEQPPHLTPGIRELVSRLQERNVQVFLISGGFRSIVEHVASKLNIPATNVFANRLKFYFNGEYAGFDETQPTAESGGKGKVIKLLKEKFHFKKIIMIGDGATDMEACPPADAFIGFGGNVIRQQVKDNAKWYITDFVELLGELEE
notes: phosphoserine phosphatase (PSP), human, EC 3.1.3.3; gene cloned in the NdeI/BamHI sites of pET28a; also called wt PSP; wild-type PSP; source: E. coli BL21(DE3), purified (published procedure)
With B3, the stoichiometry N – broadly, a count of units in the complex or per binding partner – in data set [3] turned out to be 2.

B4: Asn133Ser variant of human phosphoserine phosphatase (PSP) (enzyme)
chain: SHSELRKLFYSADAVCFDVDSTVIREEGIDELAKICGVEDAVSEMTRRAMGGAVPFKAALTERLALIQPSREQVQRLIAEQPPHLTPGIRELVSRLQERNVQVFLISGGFRSIVEHVASKLNIPATNVFASRLKFYFNGEYAGFDETQPTAESGGKGKVIKLLKEKFHFKKIIMIGDGATDMEACPPADAFIGFGGNVIRQQVKDNAKWYITDFVELLGELEE
notes: phosphoserine phosphatase (PSP), human, EC 3.1.3.3, with the patients' missense variant c.398A > G p.(Asn133Ser); mutated pET28a plasmid prepared by GenScript; Natural variant found in patients and in gnomAD; Same construct as m1 apart from the substitution; also called Asn133Ser PSP; N133S PSP; source: E. coli BL21(DE3), purified (> 90% purity, published procedure)
Regarding B4, in data set [3], the “stoichiometry N” value amounted to 2.
